The target in experiment [1] is T1, rhC1s (human, UniProt P09871 16-688).
T1 construct: Enzyme of the colorimetric peptide cleavage assay; Human is read from the printed label 'rhC1s'
T1 sequence (looked up): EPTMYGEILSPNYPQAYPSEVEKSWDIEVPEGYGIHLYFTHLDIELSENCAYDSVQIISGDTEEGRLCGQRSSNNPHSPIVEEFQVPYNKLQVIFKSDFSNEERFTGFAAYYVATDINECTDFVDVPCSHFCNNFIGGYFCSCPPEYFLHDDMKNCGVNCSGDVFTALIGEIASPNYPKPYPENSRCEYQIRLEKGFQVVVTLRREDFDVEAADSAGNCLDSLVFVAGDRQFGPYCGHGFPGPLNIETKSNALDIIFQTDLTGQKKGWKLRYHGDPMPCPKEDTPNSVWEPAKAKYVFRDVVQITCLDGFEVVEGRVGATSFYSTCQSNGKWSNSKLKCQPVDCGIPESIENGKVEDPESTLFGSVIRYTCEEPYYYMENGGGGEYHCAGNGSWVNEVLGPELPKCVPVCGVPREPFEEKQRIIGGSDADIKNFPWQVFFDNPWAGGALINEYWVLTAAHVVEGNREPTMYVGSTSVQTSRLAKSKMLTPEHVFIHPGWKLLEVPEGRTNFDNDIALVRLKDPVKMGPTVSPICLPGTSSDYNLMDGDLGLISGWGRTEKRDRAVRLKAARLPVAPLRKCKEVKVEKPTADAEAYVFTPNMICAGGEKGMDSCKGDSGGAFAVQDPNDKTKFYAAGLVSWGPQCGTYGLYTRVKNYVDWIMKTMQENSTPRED
Briefly: inhibition of rhC1s cleavage of a colorimetric peptide substrate, average OD; concentrations from gel estimated sizes; C is the midpoint of the 4-parameter fit [panel B].

Experiment [2] concerns the target T1, rhC1s. Briefly: inhibition of rhC1s cleavage of a colorimetric peptide substrate, average OD; concentrations from mass spec sizes; C is the midpoint of the 4-parameter fit [panel A].
For experiment [3], the target named is T1, rhC1s. Nature of the experiment: inhibition of C1s cleavage of a colorimetric peptide substrate, mean OD value; C is the midpoint of the 4-parameter fit.
Another experiment has as its target T2, biotin-C1s.
T2 construct: Used in the functional ELISA that measures the C1s/C1-INH complex
T2 sequence (P09871 16-688, species assumed, looked up): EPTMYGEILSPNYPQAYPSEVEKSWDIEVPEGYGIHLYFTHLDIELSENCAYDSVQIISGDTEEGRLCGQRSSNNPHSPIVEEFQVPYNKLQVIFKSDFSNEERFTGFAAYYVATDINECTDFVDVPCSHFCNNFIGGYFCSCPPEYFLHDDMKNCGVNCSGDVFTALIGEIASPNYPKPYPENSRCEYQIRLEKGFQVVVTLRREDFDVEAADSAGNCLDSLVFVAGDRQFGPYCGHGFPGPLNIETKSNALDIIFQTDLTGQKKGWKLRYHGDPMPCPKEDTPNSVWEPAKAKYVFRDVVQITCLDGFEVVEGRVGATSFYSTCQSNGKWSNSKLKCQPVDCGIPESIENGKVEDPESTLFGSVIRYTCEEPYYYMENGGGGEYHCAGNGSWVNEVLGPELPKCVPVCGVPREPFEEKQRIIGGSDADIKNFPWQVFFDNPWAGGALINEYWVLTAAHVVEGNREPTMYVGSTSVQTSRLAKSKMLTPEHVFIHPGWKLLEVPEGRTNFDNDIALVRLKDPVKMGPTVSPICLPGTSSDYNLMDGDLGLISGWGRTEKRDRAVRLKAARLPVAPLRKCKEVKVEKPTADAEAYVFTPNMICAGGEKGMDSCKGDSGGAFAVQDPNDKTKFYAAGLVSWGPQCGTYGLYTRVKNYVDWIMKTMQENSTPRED
Nature of the experiment: functional ELISA of the C1s/C1-INH complex: diluted C1-INH with biotin-C1s, captured on a streptavidin plate, anti-C1-INH-HRP, OD450; C is the midpoint of the 4-parameter fit. How it is done:
This method was used to test the effector dead Fc constructs made for PK studies FIG. 8. The ELISA protocol was as follows: [0334] 60 μL diluted C1-INH+12 μL biotin-C1s [0335] 30 min incubation at RT [0336] Transfer 50 μL of complexes to streptavidin coated plate [0337] 10 min incubation at RT, wash 5× [0338] Add 50 μL of anti-C1-INH-HRP [0339] 60 min incubation at RT, wash 5× [0340] Add 100 μL of TMB substrate [0341] 15 minute incubation at RT [0342] […] Read at OD450

B1: R&D rhC1inh (other, human, UniProt P05155 23-500, looked up)
single chain: NPNATSSSSQDPESLQDRGEGKVATTVISKMLFVEPILEVSSLPTTNSTTNSATKITANTTDEPTTQPTTEPTTQPTIQPTQPTTQLPTDSPTQPTTGSFCPGPVTLCSDLESHSTEAVLGDALVDFSLKLYHAFSAMKKVETNMAFSPFSIASLLTQVLLGAGENTKTNLESILSYPKDFTCVHQALKGFTTKGVTSVSQIFHSPDLAIRDTFVNASRTLYSSSPRVLSNNSDANLELINTWVAKNTNNKISRLLDSLPSDTRLVLLNAIYLSAKWKTTFDPKKTRMEPFHFKNSVIKVPMMNSKKYPVAHFIDQTLKAKVGQLQLSHNLSLVILVPQNLKHRLEDMEQALSPSVFKAIMEKLEMSKFQPTLLTLPRIKVTTSQDMLSIMEKLEFFDFSYDLNLCGLTEDPDLQVSAMQHQTVLELTETGVEAAAASAISVARTLLVFEVQQPFLFVLWDQQHKFPVFMGRVYDPRA
notes: commercial R&D Systems preparation; also called hSerpin G1 (R&D Systems)
As to B1, the IC50 in the experiment with rhC1s [1] and with rhC1s [2] was 1.76 nM in each case.

B2: plasma-derived C1-INH (other)
chain: NPNATSSSSQDPESLQDRGEGKVATTVISKMLFVEPILEVSSLPTTNSTTNSATKITANTTDEPTTQPTTEPTTQPTIQPTQPTTQLPTDSPTQPTTGSFCPGPVTLCSDLESHSTEAVLGDALVDFSLKLYHAFSAMKKVETNMAFSPFSIASLLTQVLLGAGENTKTNLESILSYPKDFTCVHQALKGFTTKGVTSVSQIFHSPDLAIRDTFVNASRTLYSSSPRVLSNNSDANLELINTWVAKNTNNKISRLLDSLPSDTRLVLLNAIYLSAKWKTTFDPKKTRMEPFHFKNSVIKVPMMNSKKYPVAHFIDQTLKAKVGQLQLSHNLSLVILVPQNLKHRLEDMEQALSPSVFKAIMEKLEMSKFQPTLLTLPRIKVTTSQDMLSIMEKLEFFDFSYDLNLCGLTEDPDLQVSAMQHQTVLELTETGVEAAAASAISVARTLLVFEVQQPFLFVLWDQQHKFPVFMGRVYDPRA
notes: Purified from plasma and glycosylated
For B2, the IC50 in the experiment with rhC1s [3] is 1.83 nM; in the experiment with rhC1s [1] it was 2.01 nM; with rhC1s [2], 2.01 nM. Also, the response in the experiment with biotin-C1s was half-maximal at 4.58 nM (EC50).

B3: recombinant C1-INH (other, UniProt P05155 23-500, looked up)
chain: NPNATSSSSQDPESLQDRGEGKVATTVISKMLFVEPILEVSSLPTTNSTTNSATKITANTTDEPTTQPTTEPTTQPTIQPTQPTTQLPTDSPTQPTTGSFCPGPVTLCSDLESHSTEAVLGDALVDFSLKLYHAFSAMKKVETNMAFSPFSIASLLTQVLLGAGENTKTNLESILSYPKDFTCVHQALKGFTTKGVTSVSQIFHSPDLAIRDTFVNASRTLYSSSPRVLSNNSDANLELINTWVAKNTNNKISRLLDSLPSDTRLVLLNAIYLSAKWKTTFDPKKTRMEPFHFKNSVIKVPMMNSKKYPVAHFIDQTLKAKVGQLQLSHNLSLVILVPQNLKHRLEDMEQALSPSVFKAIMEKLEMSKFQPTLLTLPRIKVTTSQDMLSIMEKLEFFDFSYDLNLCGLTEDPDLQVSAMQHQTVLELTETGVEAAAASAISVARTLLVFEVQQPFLFVLWDQQHKFPVFMGRVYDPRA
With B3, the concentration for half-maximal inhibition (IC50) with rhC1s [3] stood at 1.14 nM.
